Test results published in paper PMC12141631.
Read-outs that look alike come from different tables or passages of the source.

Columns and labels:
Test in all cases: cryo-EM structure
[1] = target: human glycine receptor β subunit, βem construct (human)
[2] = target: human glycine receptor β subunit, βem construct (human); remark: listed apart in the source
[3] = target: human glycine receptor β subunit, βem construct (human); remark: listed apart in the source

B1: human glycine receptor α3 subunit, α3em construct (receptor)
chain: ARSRSAPMSPSDFLDKLMGRTSGYDARIRPNFKGPPVNVTCNIFINSFGSIAETTMDYRVNIFLRQKWNDPRLAYSEYPDDSLDLDPSMLDSIWKPDLFFANEKGANFHEVTTDNKLLRIFKNGNVLYSIRLTLTLSCPMDLKNFPMDVQTCIMQLESFGYTMNDLIFEWQDEAPVQVAEGLTLPQFLLKEEKDLRYCTKHYNTGKFTCIEVRFHLERQMGYYLIQMYIPSLLIVILSWVSFWINMDAAPARVALGITTVLTMTTQSSGSRASLPKVSYVKAIDIWMAVCLLFVFSALLEYAAVNFVSRQHKELLRFRRKRKNKTEAFDMDDEVRESRFSFTAYGMGPCLQAKDGMTPKGPNHPVQVMPKSPDEMRKVFIDRAKKIDTISRACFPLAFLIFNIFYWVIYKILRHEDIHQQQD
stoichiometry N [1]: 4 α3 per β | stoichiometry N [2]: 4 α3 per β

B2: human glycine receptor α3 subunit, α3S346Eem construct (phosphorylation mimetic) (receptor)
chain: ARSRSAPMSPSDFLDKLMGRTSGYDARIRPNFKGPPVNVTCNIFINSFGSIAETTMDYRVNIFLRQKWNDPRLAYSEYPDDSLDLDPSMLDSIWKPDLFFANEKGANFHEVTTDNKLLRIFKNGNVLYSIRLTLTLSCPMDLKNFPMDVQTCIMQLESFGYTMNDLIFEWQDEAPVQVAEGLTLPQFLLKEEKDLRYCTKHYNTGKFTCIEVRFHLERQMGYYLIQMYIPSLLIVILSWVSFWINMDAAPARVALGITTVLTMTTQSSGSRASLPKVSYVKAIDIWMAVCLLFVFSALLEYAAVNFVSRQHKELLRFRRKRKNKTEAFDMDDEVREERFSFTAYGMGPCLQAKDGMTPKGPNHPVQVMPKSPDEMRKVFIDRAKKIDTISRACFPLAFLIFNIFYWVIYKILRHEDIHQQQD
stoichiometry N [3]: 4 α3 per β | stoichiometry N [1]: 4 α3 per β
